For assay [1], the target named is Microtubules polymerised from tubulin protein (T240; Cytoskeleton), paclitaxel-stabilised (UniProt P02550). The assay is described as follows: co-sedimentation.
Assay [2] concerns the target mEGFP–Daple FL (full-length mouse Daple, mEGFP(A206K)-Daple-Flag) (mouse) (UniProt Q6VGS5). In words: single-molecule photobleaching steps and spot intensities.
Assay [3] concerns the target mEGFP–Daple FL ΔCT (mouse Daple lacking the CT domain) (mouse). The assay is described as above.
Assay [4] has as its target mEGFP–Daple NT (N-terminal domain of mouse Daple) (mouse). The assay is described as above.

As a reminder, the Kd is the constant that tells how readily two partners part at equilibrium. Lower therefore signals a tighter complex. Take “mEGFP–Daple FL (full-length mouse Daple, mEGFP(A206K)-Daple-Flag) (from UniProt Q6VGS5 1-2009) (natural protein)”: the Kd in assay [1] was determined as 1.46 µM. This lies in the single-digit micromolar range. As a reminder, the stoichiometry N is the number of molecules, sites or subunits per partner or assembly. Take “mEGFP–Daple FL (full-length mouse Daple, mEGFP(A206K)-Daple-Flag), Q6VGS5 1-2009”: the stoichiometry N in assay [2] came to 2.

In assay [3], “mEGFP–Daple FL ΔCT (mouse Daple lacking the CT domain) (domain or fragment)” yielded a stoichiometry N of 2. As to “mEGFP–Daple NT (N-terminal domain of mouse Daple) (domain or fragment)”, in assay [4], the stoichiometry N turned out to be 2.
